How the values were obtained:
human CD28 [1] = molecular target: T1, human CD28 (human, UniProt P10747 19-152, limits assumed); assay: affinity maturation of CD28-binding antibodies (Example 10: Discovery of Additional Antibodies that Bind to CD28)
T1 construct: also called Cluster of Differentiation 28; Tp44

human CD28 [2] = molecular target: T1, human CD28; assay: selection from yeast-presented synthetic human antibody libraries
human CD28 [3] = molecular target: T1, human CD28; assay: selection from yeast-presented libraries of heavy chains and CD3-binding light chains

binding result (human CD28 [1]) | Binder | also measured
binds | Ab No. 21c (antibody, V domains shown, derived from Ab No. 21 by modifying VH CDRs, VL unchanged; IgG format) VH: QVQLVQSGAEVKKPGSSVKVSCKASGGTFSGYAISWVRQAPGQGLEWMGGIIPISATANYAQKFQGRVTITADESTSTAYMELSSLRSEDTAVYYCTRDLGFGAIRDTWGQGTLVTVSS VL: EIVLTQSPATLSLSPGERATLSCRASQSVSSYLAWFQQKPGQAPRLLIYDASNRATGIPARFSGSGSGTDFTLTISSLEPEDFAVYYCQQSLNLPITFGGGTKVEIK | –
binds | Ab No. 21f (antibody, V domains shown, derived from Ab No. 21 by modifying VH CDRs, VL unchanged; IgG format) VH: QVQLVQSGAEVKKPGSSVKVSCKASGGTFGGYAISWVRQAPGQGLEWMGGIIPISATAFYAQKFQGRVTITADESTSTAYMELSSLRSEDTAVYYCTRDLGFGAIRDTWGQGTLVTVSS VL: EIVLTQSPATLSLSPGERATLSCRASQSVSSYLAWFQQKPGQAPRLLIYDASNRATGIPARFSGSGSGTDFTLTISSLEPEDFAVYYCQQSLNLPITFGGGTKVEIK | –
binds | Ab No. 21d (antibody, V domains shown, derived from Ab No. 21 by modifying VH CDRs, VL unchanged; IgG format) VH: QVQLVQSGAEVKKPGSSVKVSCKASGGTFSTYAISWVRQAPGQGLEWMGGIIPISGTANYAQKFQGRVTITADESTSTAYMELSSLRSEDTAVYYCTRDLGFGAIRDTWGQGTLVTVSS VL: EIVLTQSPATLSLSPGERATLSCRASQSVSSYLAWFQQKPGQAPRLLIYDASNRATGIPARFSGSGSGTDFTLTISSLEPEDFAVYYCQQSLNLPITFGGGTKVEIK | –
binds | Ab No. 21e (antibody, V domains shown, derived from Ab No. 21 by modifying VH CDRs, VL unchanged; IgG format) VH: QVQLVQSGAEVKKPGSSVKVSCKASGGTFDNYAISWVRQAPGQGLEWMGGIIPISGTAIYAQKFQGRVTITADESTSTAYMELSSLRSEDTAVYYCTRDLGFGAIRDTWGQGTLVTVSS VL: EIVLTQSPATLSLSPGERATLSCRASQSVSSYLAWFQQKPGQAPRLLIYDASNRATGIPARFSGSGSGTDFTLTISSLEPEDFAVYYCQQSLNLPITFGGGTKVEIK | –

Second part, the binder before the results:

Binder | binding result (human CD28 [1]) | also measured
Ab No. 28a (antibody, V domains shown, derived from Ab No. 28 by modifying VH CDRs, VL unchanged; IgG format) VH: EVQLLESGGGLVQPGGSLRLSCAASGFTFGSYAMHWVRQAPGKGLEWVSAISGSGQSTDYADSVKGRFTISRDNSKNTLYLQMNSLRAEDTAVYYCVRGYRLVGILTGSHFDYWGQGTLVTVSS VL: DIQMTQSPSTLSASVGDRVTITCRASQSIGSWLAWYQQKPGKAPKLLIYKASSLESGVPSRFSGSGSGTEFTLTISSLQPDDFATYYCQQYNILPPTFGGGTKVEIK | binds | –
Ab No. 28b (antibody, V domains shown, derived from Ab No. 28 by modifying VH CDRs, VL unchanged; IgG format) VH: EVQLLESGGGLVQPGGSLRLSCAASGFTFSKYQMSWVRQAPGKGLEWVSAISGTGESTDYADSVKGRFTISRDNSKNTLYLQMNSLRAEDTAVYYCVRGYRLVGILTGSHFDYWGQGTLVTVSS VL: DIQMTQSPSTLSASVGDRVTITCRASQSIGSWLAWYQQKPGKAPKLLIYKASSLESGVPSRFSGSGSGTEFTLTISSLQPDDFATYYCQQYNILPPTFGGGTKVEIK | binds | –
Ab No. 28f (antibody, V domains shown, derived from Ab No. 28 by modifying VH CDRs, VL unchanged; IgG format) VH: EVQLLESGGGLVQPGGSLRLSCAASGFTFSTYGMNWVRQAPGKGLEWVSAISGSGLNTYYADSVKGRFTISRDNSKNTLYLQMNSLRAEDTAVYYCVRGYRLVGILTGSHFDYWGQGTLVTVSS VL: DIQMTQSPSTLSASVGDRVTITCRASQSIGSWLAWYQQKPGKAPKLLIYKASSLESGVPSRFSGSGSGTEFTLTISSLQPDDFATYYCQQYNILPPTFGGGTKVEIK | binds | –
Ab No. 28e (antibody, V domains shown, derived from Ab No. 28 by modifying VH CDRs, VL unchanged; IgG format) VH: EVQLLESGGGLVQPGGSLRLSCAASGFTFGRYAMSWVRQAPGKGLEWVSAISGDAGSTFYADSVKGRFTISRDNSKNTLYLQMNSLRAEDTAVYYCVRGYRLVGILTGSHFDYWGQGTLVTVSS VL: DIQMTQSPSTLSASVGDRVTITCRASQSIGSWLAWYQQKPGKAPKLLIYKASSLESGVPSRFSGSGSGTEFTLTISSLQPDDFATYYCQQYNILPPTFGGGTKVEIK | binds | –
Ab No. 28c (antibody, V domains shown, derived from Ab No. 28 by modifying VH CDRs, VL unchanged; IgG format) VH: EVQLLESGGGLVQPGGSLRLSCAASGFPFSAYGMSWVRQAPGKGLEWVSAISGSGGNTDYADSVKGRFTISRDNSKNTLYLQMNSLRAEDTAVYYCVRGYRLVGILTGSHFDYWGQGTLVTVSS VL: DIQMTQSPSTLSASVGDRVTITCRASQSIGSWLAWYQQKPGKAPKLLIYKASSLESGVPSRFSGSGSGTEFTLTISSLQPDDFATYYCQQYNILPPTFGGGTKVEIK | binds | –
Ab No. 28d (antibody, V domains shown, derived from Ab No. 28 by modifying VH CDRs, VL unchanged; IgG format) VH: EVQLLESGGGLVQPGGSLRLSCAASGFTFDAYAMSWVRQAPGKGLEWVSAISGSGVRTYYADSVKGRFTISRDNSKNTLYLQMNSLRAEDTAVYYCVRGYRLVGILTGSHFDYWGQGTLVTVSS VL: DIQMTQSPSTLSASVGDRVTITCRASQSIGSWLAWYQQKPGKAPKLLIYKASSLESGVPSRFSGSGSGTEFTLTISSLQPDDFATYYCQQYNILPPTFGGGTKVEIK | binds | –
Ab No. 21a (antibody, V domains shown, derived from Ab No. 21 by modifying VH CDRs, VL unchanged; IgG format) VH: QVQLVQSGAEVKKPGSSVKVSCKASGGTFNAYAISWVRQAPGQGLEWMGGIIPISGTAAYAQKFQGRVTITADESTSTAYMELSSLRSEDTAVYYCTRDLGFGAIRDTWGQGTLVTVSS VL: EIVLTQSPATLSLSPGERATLSCRASQSVSSYLAWFQQKPGQAPRLLIYDASNRATGIPARFSGSGSGTDFTLTISSLEPEDFAVYYCQQSLNLPITFGGGTKVEIK | binds | –
Ab No. 21b (antibody, V domains shown, derived from Ab No. 21 by modifying VH CDRs, VL unchanged; IgG format) VH: QVQLVQSGAEVKKPGSSVKVSCKASGGTFNAYAISWVRQAPGQGLEWMGGIIPISGTANYAQKFQGRVTITADESTSTAYMELSSLRSEDTAVYYCTRDLGFGAIRDTWGQGTLVTVSS VL: EIVLTQSPATLSLSPGERATLSCRASQSVSSYLAWFQQKPGQAPRLLIYDASNRATGIPARFSGSGSGTDFTLTISSLEPEDFAVYYCQQSLNLPITFGGGTKVEIK | binds | –
Ab No. 9 (antibody, V domains shown, IgG format) VH: QVQLVQSGAEVKKPGSSVKVSCKASGGTFSSYAISWVRQAPGQGLEWMGGIIPISGTANYAQKFQGRVTITADESTSTAYMELSSLRSEDTAVYYCALGRWLTEAQWGQGTLVTVSS VL: not shown | – | binding result (human CD28 [2]): binds
Ab No. 61 (antibody, V domains shown, IgG format) VH: EVQLLESGGGLVQPGGSLRLSCAASGFTFDHYAMSWVRQAPGKGLEWVSAISASGDETYYADSVKGRFTISRDNSKNTLYLQMNSLRAEDTAVYYCARDSPHMATYKSYYYYGMDVWGQGTTVTVSS VL: DIVMTQSPDSLAVSLGERATINCKSSQSLLNARTGKNYLAWYQQKPGQPPKLLIYWASTRESGVPDRFSGSGSGTDFTLTISSLQAEDVAVYYCKQSYSLRTFGGGTKVEIK | – | binding result (human CD28 [3]): binds
Ab No. 60 (antibody, V domains shown, IgG format; also called ADI-83102) VH: EVQLLESGGGLVQPGGSLRLSCAASGFTFDNYAMSWVRQAPGKGLEWVSAISADAGQTYYADSVKGRFTISRDNSKNTLYLQMNSLRAEDTAVYYCARDSPHMATYKSYYYYGMDVWGQGTTVTVSS VL: DIVMTQSPDSLAVSLGERATINCKSSQSLLNARTGKNYLAWYQQKPGQPPKLLIYWASTRESGVPDRFSGSGSGTDFTLTISSLQAEDVAVYYCKQSYSLRTFGGGTKVEIK | – | binding result (human CD28 [3]): binds
Ab No. 8 (antibody, V domains shown, IgG format) VH: QVQLVQSGAEVKKPGSSVKVSCKASGGTFSSYAISWVRQAPGQGLEWMGGIIPISGTANYAQKFQGRVTITADESTSTAYMELSSLRSEDTAVYYCAKTRTVAYPGSDWGQGTLVTVSS VL: not shown | – | binding result (human CD28 [2]): binds

Reference: patent EP4713368A1 (dated 2026)
